Columns and labels:
[1] = Saturation mutagenesis of SEQ ID NO:109, dicamba decarboxylation activity of point mutants
[2] = Detection of 2,5-DCP product by GC/MS; type: biochemical; conditions: purified protein
Experimental: The decarboxylated and demethylated product of dicamba, 2,5-dichloro phenol or 2,5-DCP (FIG. 1E) is measured using a GC/MS analytical procedure with either liquid injection after liquid/liquid extraction using toluene as the extraction solvent or gas injection using head space method. The head space sample analysis is carried out on an Agilent GC/MS system with a 6890A GC, a 5973N MSD and a CTC CombiPAL auto-sampler or with a 7890A GC, a 5975C MSD and an Agilent GC Sampler 80 auto-sampler with Phenomenex ZB-MultiResidue-1 column (30 m length, 0.25 mm diameter, 0.25 um film) or equivalent. GC/MS parameters are: GC inlet temperature, 200° C.; Carry gas, helium in constant flow mode (1.2 mL/min); Oven temperature program, 70° C. for 1 min and then ramp to 275° C. at 40° C./min. […] The reaction vial is transferred to a agitator for incubation at 90° C. for 4 min at 500 rpm. With a syringe preheated at 110° C., 1000 uL of head space is injected with sample fill speed at 100 uL/sec. A 2-mm diameter liner is used in sample inlet. The MS data acquisition is done in SIM (selected ion monitoring) mode. The positive ion at M/Z 162 for the molecular ion of 2,-5-DCP is monitored at retention time of 4.06 min. Solvent delay for MS acquisition is set at 3 min. GC/MS parameters for liquid sample analysis are the same as those for head space analysis, except that the volume of liquid injection is 1 uL.

[3] = 14C assay with IPTG-induced recombinant E. coli cells (14CO2 capture from [14C]-carboxyl-labeled dicamba); conditions: E. coli cell assay, 108 sequences tested
[4] = 14C assay with purified protein (14CO2 captured on Ca(OH)2 filter paper); type: biochemical; conditions: [14C]-carboxyl-labeled dicamba
[5] = Detection of 4-chloro-3-methoxy phenol product by LC-MS/MS; type: biochemical; conditions: purified protein
Experimental: The decarboxylated and chloro hydrolyzed product, 4-chloro-3-methoxy phenol (FIG. 1D), is measured using a LC-MS/MS analytical procedure. […] 10 ul is removed from the reaction mixture and mixed with 90 ul pre-chilled methanol followed by centrifugation at 14,000 rpm for 15 min at 4° C. 10 ul of the supernatant is then transferred into 170 ul ddH2O to achieve 5% methanol solution for injection. 50 ul of the prepared sample is injected into a 4000 Q Trap LC-MS/MS system for sample analysis. LC-MS/MS parameters are: Mobile Phase A, 2 mM ammonium acetate in water; Mobile Phase B, 2 mM ammonium acetate in methanol; Column, Aquasil, 100×2.1 mm, 3 μm, C18 column; Flow Rate, 0.6 ml/min. The MS/MS fragment 157/142 which is common to 4-chloro-3-methoxy phenol, 2-chloro-5-methoxy phenol, and 3-chloro-5-methoxy phenol is monitored at a retention time of 2.88 min.

[6] = Dicamba decarboxylation activity of computationally designed protein variants; conditions: native protein or designed variant versus parent
[7] = dicamba decarboxylation activity of point mutants of SEQ ID NO: 109 (NNK saturation mutagenesis), relative to the unchanged template
[8] = dicamba decarboxylation activity of single point mutants of SEQ ID NO:109, relative to unchanged template

B1: N61G: point mutation N61G of SEQ ID NO:109 (protein)
chain: MAQGKVALEEHFAIPETLQDSAGFVPGDYWKELQHRLLDIQDTRLKLMDAHGIETMILSLGAPAVQAIPDRRKAIEIARRANDVLAEECAKRPDRFLAFAALPLQDPDAATEELQRCVNDLGFVGALVNGFSQEGDGQTPLYYDLPQYRPFWGEVEKLDVPFYLHPRNPLPQDSRIYDGHPWLLGPTWAFAQETAVHALRLMASGLFDEHPRLNIILGHMGEGLPYMMWRIDHRVAWVKLPPRYPAKRRFMDYFNENFHITTSGNFRTQTLIDAILEIGADRILFSTDWPFENIDHASDWFNATSIAEADRVKIGRTNARRLFKLDGA
modifications: Dicamba decarboxylase variant clone DC.4.032
[1]; [7]
  Average Activity (Fold of SEQ ID NO: 109): 2.3 Fold of SEQ ID NO: 109

B2: A64S: point mutation A64S of SEQ ID NO:109 (protein)
chain: MAQGKVALEEHFAIPETLQDSAGFVPGDYWKELQHRLLDIQDTRLKLMDAHGIETMILSLNAPSVQAIPDRRKAIEIARRANDVLAEECAKRPDRFLAFAALPLQDPDAATEELQRCVNDLGFVGALVNGFSQEGDGQTPLYYDLPQYRPFWGEVEKLDVPFYLHPRNPLPQDSRIYDGHPWLLGPTWAFAQETAVHALRLMASGLFDEHPRLNIILGHMGEGLPYMMWRIDHRVAWVKLPPRYPAKRRFMDYFNENFHITTSGNFRTQTLIDAILEIGADRILFSTDWPFENIDHASDWFNATSIAEADRVKIGRTNARRLFKLDGA
modifications: Dicamba decarboxylase variant clone DC.4.032
[1]; [7]
  Average Activity (Fold of SEQ ID NO: 109): 2.1 Fold of SEQ ID NO: 109

B3: L240A: point mutation L240A of SEQ ID NO:109 (protein)
chain: MAQGKVALEEHFAIPETLQDSAGFVPGDYWKELQHRLLDIQDTRLKLMDAHGIETMILSLNAPAVQAIPDRRKAIEIARRANDVLAEECAKRPDRFLAFAALPLQDPDAATEELQRCVNDLGFVGALVNGFSQEGDGQTPLYYDLPQYRPFWGEVEKLDVPFYLHPRNPLPQDSRIYDGHPWLLGPTWAFAQETAVHALRLMASGLFDEHPRLNIILGHMGEGLPYMMWRIDHRVAWVKAPPRYPAKRRFMDYFNENFHITTSGNFRTQTLIDAILEIGADRILFSTDWPFENIDHASDWFNATSIAEADRVKIGRTNARRLFKLDGA
modifications: Dicamba decarboxylase variant clone DC.4.032
[1]; [7]
  Average Activity (Fold of SEQ ID NO: 109): 2.3 Fold of SEQ ID NO: 109

B4: N61S: point mutation N61S of SEQ ID NO:109 (protein)
chain: MAQGKVALEEHFAIPETLQDSAGFVPGDYWKELQHRLLDIQDTRLKLMDAHGIETMILSLSAPAVQAIPDRRKAIEIARRANDVLAEECAKRPDRFLAFAALPLQDPDAATEELQRCVNDLGFVGALVNGFSQEGDGQTPLYYDLPQYRPFWGEVEKLDVPFYLHPRNPLPQDSRIYDGHPWLLGPTWAFAQETAVHALRLMASGLFDEHPRLNIILGHMGEGLPYMMWRIDHRVAWVKLPPRYPAKRRFMDYFNENFHITTSGNFRTQTLIDAILEIGADRILFSTDWPFENIDHASDWFNATSIAEADRVKIGRTNARRLFKLDGA
modifications: Dicamba decarboxylase variant clone DC.4.032
[1]; [7]
  Average Activity (Fold of SEQ ID NO: 109): 2.5 Fold of SEQ ID NO: 109
[1]; [8]
  Average Activity (Fold of SEQ ID NO: 109): 2.5 Fold of SEQ ID NO: 109

B5: V235I: point mutation V235I of SEQ ID NO:109 (protein)
chain: MAQGKVALEEHFAIPETLQDSAGFVPGDYWKELQHRLLDIQDTRLKLMDAHGIETMILSLNAPAVQAIPDRRKAIEIARRANDVLAEECAKRPDRFLAFAALPLQDPDAATEELQRCVNDLGFVGALVNGFSQEGDGQTPLYYDLPQYRPFWGEVEKLDVPFYLHPRNPLPQDSRIYDGHPWLLGPTWAFAQETAVHALRLMASGLFDEHPRLNIILGHMGEGLPYMMWRIDHRIAWVKLPPRYPAKRRFMDYFNENFHITTSGNFRTQTLIDAILEIGADRILFSTDWPFENIDHASDWFNATSIAEADRVKIGRTNARRLFKLDGA
modifications: Dicamba decarboxylase variant clone DC.4.032
[1]; [7]
  Average Activity (Fold of SEQ ID NO: 109): 1.8 Fold of SEQ ID NO: 109
[1]; [8]
  Average Activity (Fold of SEQ ID NO: 109): 1.8 Fold of SEQ ID NO: 109

B6: A64G: point mutation A64G of SEQ ID NO:109 (protein)
chain: MAQGKVALEEHFAIPETLQDSAGFVPGDYWKELQHRLLDIQDTRLKLMDAHGIETMILSLNAPGVQAIPDRRKAIEIARRANDVLAEECAKRPDRFLAFAALPLQDPDAATEELQRCVNDLGFVGALVNGFSQEGDGQTPLYYDLPQYRPFWGEVEKLDVPFYLHPRNPLPQDSRIYDGHPWLLGPTWAFAQETAVHALRLMASGLFDEHPRLNIILGHMGEGLPYMMWRIDHRVAWVKLPPRYPAKRRFMDYFNENFHITTSGNFRTQTLIDAILEIGADRILFSTDWPFENIDHASDWFNATSIAEADRVKIGRTNARRLFKLDGA
modifications: Dicamba decarboxylase variant clone DC.4.032
[1]; [7]
  Average Activity (Fold of SEQ ID NO: 109): 2.6 Fold of SEQ ID NO: 109
[1]; [8]
  Average Activity (Fold of SEQ ID NO: 109): 2.6 Fold of SEQ ID NO: 109

B7: N214Q: point mutation N214Q of SEQ ID NO:109 (protein)
chain: MAQGKVALEEHFAIPETLQDSAGFVPGDYWKELQHRLLDIQDTRLKLMDAHGIETMILSLNAPAVQAIPDRRKAIEIARRANDVLAEECAKRPDRFLAFAALPLQDPDAATEELQRCVNDLGFVGALVNGFSQEGDGQTPLYYDLPQYRPFWGEVEKLDVPFYLHPRNPLPQDSRIYDGHPWLLGPTWAFAQETAVHALRLMASGLFDEHPRLQIILGHMGEGLPYMMWRIDHRVAWVKLPPRYPAKRRFMDYFNENFHITTSGNFRTQTLIDAILEIGADRILFSTDWPFENIDHASDWFNATSIAEADRVKIGRTNARRLFKLDGA
modifications: Dicamba decarboxylase variant clone DC.4.032
[1]; [7]
  Average Activity (Fold of SEQ ID NO: 109): 1.8 Fold of SEQ ID NO: 109
[1]; [8]
  Average Activity (Fold of SEQ ID NO: 109): 1.8 Fold of SEQ ID NO: 109

B8: P63V: point mutation P63V of SEQ ID NO:109 (protein)
chain: MAQGKVALEEHFAIPETLQDSAGFVPGDYWKELQHRLLDIQDTRLKLMDAHGIETMILSLNAVAVQAIPDRRKAIEIARRANDVLAEECAKRPDRFLAFAALPLQDPDAATEELQRCVNDLGFVGALVNGFSQEGDGQTPLYYDLPQYRPFWGEVEKLDVPFYLHPRNPLPQDSRIYDGHPWLLGPTWAFAQETAVHALRLMASGLFDEHPRLNIILGHMGEGLPYMMWRIDHRVAWVKLPPRYPAKRRFMDYFNENFHITTSGNFRTQTLIDAILEIGADRILFSTDWPFENIDHASDWFNATSIAEADRVKIGRTNARRLFKLDGA
modifications: Dicamba decarboxylase variant clone DC.4.032
[1]; [7]
  Average Activity (Fold of SEQ ID NO: 109): 1.8 Fold of SEQ ID NO: 109

B9: SEQ ID NO:41: amidohydrolase 2, Polaromonas sp. JS666 (protein, listed as Polaromonas sp.)
chain: MANGKIALEEHFATEETLMDSAGFVPDKDWPELRSRLLDIQDRRVRLMDEHGIETMILSLNAPAVQAIADSTRANETARRANDFLAEQVAKQPTRFRGFAALPMQDPELAARELERCVKELGFVGALVNGFSQDNRSAVPLYYDMAQYWPFWETVQALDVPFYLHPRNPLPSDARIYDGHAWLLGPTWAFGQETAVHALRLMGSGLFDKYPALKIILGHMGEGLPYSMWRIDHRNAWIKTTPKYPAKRKIVDYFNENFYLTTSGNFRTQTLIDAILEIGADRILFSTDWPFENIDHAADWFENTSISEADRKKIGWGNAQNLFKLNR
[2]
  2,5-DCP product: detected
[3]
  decarboxylation activity of dicamba: showed decarboxylation activity of dicamba
[4]
  CO2 product: detected
[5]
  4-chloro-3-methoxy phenol product: detected
[6]
  Dicamba Decarboxylase Activity: native dicamba decarboxylase activity

From patent US20140287419A1, “Compositions Having Dicamba Decarboxylase Activity and Methods of Use” (priority 2013, published 2014)
